Measured values reported in US20150344570A1 (published 2015).

T1: FcgRIIaR (human, UniProt P12318 34-217)
T1 construct: extracellular domain; Allotype R131; also called FcγRIIa R; FcgRIIa type R; not shown: His tag attached to the C terminus
T1 sequence (looked up): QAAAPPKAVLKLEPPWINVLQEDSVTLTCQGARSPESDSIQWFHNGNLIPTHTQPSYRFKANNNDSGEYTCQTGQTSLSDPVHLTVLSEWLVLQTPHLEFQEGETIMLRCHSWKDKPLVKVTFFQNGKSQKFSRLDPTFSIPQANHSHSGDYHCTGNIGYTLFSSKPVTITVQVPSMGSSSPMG

T2: FcgRIIaH (human, UniProt P12318 34-217)
T2 construct: extracellular domain; Allotype H131; also called FcγRIIa H; FcgRIIa type H; not shown: His tag attached to the C terminus
T2 sequence (looked up): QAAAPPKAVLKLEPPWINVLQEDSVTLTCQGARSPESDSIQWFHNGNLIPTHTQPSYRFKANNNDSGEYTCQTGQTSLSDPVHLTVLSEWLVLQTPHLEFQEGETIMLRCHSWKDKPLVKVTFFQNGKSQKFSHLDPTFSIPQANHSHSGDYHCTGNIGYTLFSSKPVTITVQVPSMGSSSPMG

T3: FcgRIIb (human, UniProt P31994 43-217)
T3 construct: extracellular domain; also called FcγRIIb; CD32B; not shown: His tag attached to the C terminus
T3 sequence (looked up): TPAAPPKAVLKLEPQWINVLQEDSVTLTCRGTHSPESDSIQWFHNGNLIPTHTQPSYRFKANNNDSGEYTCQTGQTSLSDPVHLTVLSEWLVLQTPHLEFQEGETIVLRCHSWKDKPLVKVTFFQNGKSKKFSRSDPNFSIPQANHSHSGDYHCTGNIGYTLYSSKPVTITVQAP


Tests used:
FcgRIa = biological target: T4, FcgRIa (human, UniProt P12314 16-292); assay: SPR (Biacore); KD of H240-Kn120/H240-Hl068/L73-k0 divided by KD of the sample
T4 construct: extracellular domain; Soluble extracellular domain expressed in FreeStyle293 cells; also called FcγRIa; FcγRI; not shown: His tag attached to the C terminus

FcgRIIaR = biological target: T1, FcgRIIaR; assay: as above
FcgRIIaH = biological target: T2, FcgRIIaH; assay: as above
FcgRIIb = biological target: T3, FcgRIIb; assay: as above
FcgRIIIaF = biological target: T5, FcgRIIIaF (human, UniProt P08637 17-208); assay: as above
T5 construct: extracellular domain; Allotype F158; also called FcγRIIIa F; not shown: His tag attached to the C terminus

FcgRIIIaV = biological target: T6, FcgRIIIaV (human, UniProt P08637 17-208); assay: as above
T6 construct: extracellular domain; Allotype V158; also called FcγRIIIa V; not shown: His tag attached to the C terminus

[1] = biological target: FcγRIIIa extracellular domain with C-terminal His tag (human, UniProt P08637 17-208); assay: SPR (Biacore), relative binding activity; GpH7-A5/GpH7-B3/GpL16-k0 = 100
Chain of FcγRIIIa extracellular domain with C-terminal His tag (P08637 17-208): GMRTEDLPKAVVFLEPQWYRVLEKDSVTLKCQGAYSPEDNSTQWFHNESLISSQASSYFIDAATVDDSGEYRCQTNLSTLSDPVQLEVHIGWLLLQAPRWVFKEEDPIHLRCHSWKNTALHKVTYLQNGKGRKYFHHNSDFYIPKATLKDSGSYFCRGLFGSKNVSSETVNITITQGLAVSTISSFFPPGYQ

T6 sequence (P08637 17-208 F176V limits assumed): as the sequence (P08637 17-208) above, with F160V counted along it
T4 sequence (P12314 16-292): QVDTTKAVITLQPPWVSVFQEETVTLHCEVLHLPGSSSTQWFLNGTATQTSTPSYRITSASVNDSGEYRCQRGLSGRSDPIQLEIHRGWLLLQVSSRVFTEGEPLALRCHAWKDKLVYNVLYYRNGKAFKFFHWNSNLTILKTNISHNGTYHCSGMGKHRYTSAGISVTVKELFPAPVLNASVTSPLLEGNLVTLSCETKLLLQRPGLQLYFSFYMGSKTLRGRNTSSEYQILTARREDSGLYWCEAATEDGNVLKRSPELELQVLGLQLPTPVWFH
T5 sequence (P08637 17-208): as the sequence (P08637 17-208) above

Row | Binder | relative KD (FcgRIa) | relative KD (FcgRIIaR) | relative KD (FcgRIIaH) | relative KD (FcgRIIb) | relative KD (FcgRIIIaF) | relative KD (FcgRIIIaV) | FcγRIIIa BINDING ACTIVITY [1] [%]
1 | H240-Kn172/H240-Hl177/L73-k0 (antibody, human IgG1, kappa, Heterodimerized anti-epiregulin IgG1 antibody; I332M in H240-Kn120 and I332Q in H240-Hl068) heavy 1: QDQLVQSGAEVKKPGASVKVSCKASGFNIKDTYIQWVRQAPGQGLEWMGRIDPLRKQTKYREKFEGRVTITADTSTNTAYMELSSLRSEDTAVYYCVRSGREFDYWGQGTLVTVSSASTKGPSVFPLAPSSKSTSGGTAALGCLVKDYFPEPVTVSWNSGALTSGVHTFPAVLQSSGLYSLSSVVTVPSSSLGTQTYICNVNHKPSNTKVDKKVEPKSCDKTHTCPPCPAPEYYWGPMVFLFPPKPKDTLMISRTPEVTCVVVDVSDEDPEVKFNWYVDGVEVHNAKTKPREEQYNATYRVVSVLTVLHQDWLNGKEYKCKVSNKDLPAPMEKTISKAKGQPREPQVCTLPPSRDELTKNQVSLWCLVKGFYPSDIAVEWESNGQPENNYKTTPPVLDSDGSFFLYSKLTVDKSRWQQGNVFSCSVMHEALHNHYTQKSLSLSP heavy 2: QDQLVQSGAEVKKPGASVKVSCKASGFNIKDTYIQWVRQAPGQGLEWMGRIDPLRKQTKYREKFEGRVTITADTSTNTAYMELSSLRSEDTAVYYCVRSGREFDYWGQGTLVTVSSASTKGPSVFPLAPSSKSTSGGTAALGCLVKDYFPEPVTVSWNSGALTSGVHTFPAVLQSSGLYSLSSVVTVPSSSLGTQTYICNVNHKPSNTKVDKKVEPKSCDKTHTCPPCPAPELLGGPSVFLFPPKPKDTLMISRTPEVTCVVVDVSHEEPEVKFNWYVDGVEVHNAKTKPREEQYNSTYRVVSVLTVLHQDWLNGKEYKCKVSNDALPKPQEETISKAKGQPREPQVYTLPPSRCELTKNQVSLSCAVKGFYPSDIAVEWESNGQPENNYKTTPPVLDSDGSFFLVSKLTVDKSRWQQGNVFSCSVMHEALHNHYTQKSLSLSP light: DIQMTQSPSSLSASVGDRVTITCRASQDIHKYIAWYQQKPGQAPRLLIQYTSTLQPGVPSRFSGSGSGTDYTFTISSLQPEDIATYYCLQYEQLRTFGGGTKVEIKRTVAAPSVFIFPPSDEQLKSGTASVVCLLNNFYPREAKVQWKVDNALQSGNSQESVTEQDSKDSTYSLSSTLTLSKADYEKHKVYACEVTHQGLSSPVTKSFNRGEC | 0.6 | 0.7 | 0.7 | 0.9 | 1.1 | 1.6 | –
2 | H240-Kn178/H240-Hl068/L73-k0 (antibody, human IgG1, kappa, Heterodimerized anti-epiregulin IgG1 antibody; K334Y in H240-Kn120) heavy 1: QDQLVQSGAEVKKPGASVKVSCKASGFNIKDTYIQWVRQAPGQGLEWMGRIDPLRKQTKYREKFEGRVTITADTSTNTAYMELSSLRSEDTAVYYCVRSGREFDYWGQGTLVTVSSASTKGPSVFPLAPSSKSTSGGTAALGCLVKDYFPEPVTVSWNSGALTSGVHTFPAVLQSSGLYSLSSVVTVPSSSLGTQTYICNVNHKPSNTKVDKKVEPKSCDKTHTCPPCPAPEYYWGPMVFLFPPKPKDTLMISRTPEVTCVVVDVSDEDPEVKFNWYVDGVEVHNAKTKPREEQYNATYRVVSVLTVLHQDWLNGKEYKCKVSNKDLPAPIEYTISKAKGQPREPQVCTLPPSRDELTKNQVSLWCLVKGFYPSDIAVEWESNGQPENNYKTTPPVLDSDGSFFLYSKLTVDKSRWQQGNVFSCSVMHEALHNHYTQKSLSLSP heavy 2: QDQLVQSGAEVKKPGASVKVSCKASGFNIKDTYIQWVRQAPGQGLEWMGRIDPLRKQTKYREKFEGRVTITADTSTNTAYMELSSLRSEDTAVYYCVRSGREFDYWGQGTLVTVSSASTKGPSVFPLAPSSKSTSGGTAALGCLVKDYFPEPVTVSWNSGALTSGVHTFPAVLQSSGLYSLSSVVTVPSSSLGTQTYICNVNHKPSNTKVDKKVEPKSCDKTHTCPPCPAPELLGGPSVFLFPPKPKDTLMISRTPEVTCVVVDVSHEEPEVKFNWYVDGVEVHNAKTKPREEQYNSTYRVVSVLTVLHQDWLNGKEYKCKVSNDALPKPIEETISKAKGQPREPQVYTLPPSRCELTKNQVSLSCAVKGFYPSDIAVEWESNGQPENNYKTTPPVLDSDGSFFLVSKLTVDKSRWQQGNVFSCSVMHEALHNHYTQKSLSLSP light: DIQMTQSPSSLSASVGDRVTITCRASQDIHKYIAWYQQKPGQAPRLLIQYTSTLQPGVPSRFSGSGSGTDYTFTISSLQPEDIATYYCLQYEQLRTFGGGTKVEIKRTVAAPSVFIFPPSDEQLKSGTASVVCLLNNFYPREAKVQWKVDNALQSGNSQESVTEQDSKDSTYSLSSTLTLSKADYEKHKVYACEVTHQGLSSPVTKSFNRGEC | 0.7 | 0.8 | 0.6 | 1.4 | 1.6 | 1.9 | –
3 | H240-Kn173/H240-Hl068/L73-k0 (antibody, human IgG1, kappa, Heterodimerized anti-epiregulin IgG1 antibody; I332Q in H240-Kn120) heavy 1: QDQLVQSGAEVKKPGASVKVSCKASGFNIKDTYIQWVRQAPGQGLEWMGRIDPLRKQTKYREKFEGRVTITADTSTNTAYMELSSLRSEDTAVYYCVRSGREFDYWGQGTLVTVSSASTKGPSVFPLAPSSKSTSGGTAALGCLVKDYFPEPVTVSWNSGALTSGVHTFPAVLQSSGLYSLSSVVTVPSSSLGTQTYICNVNHKPSNTKVDKKVEPKSCDKTHTCPPCPAPEYYWGPMVFLFPPKPKDTLMISRTPEVTCVVVDVSDEDPEVKFNWYVDGVEVHNAKTKPREEQYNATYRVVSVLTVLHQDWLNGKEYKCKVSNKDLPAPQEKTISKAKGQPREPQVCTLPPSRDELTKNQVSLWCLVKGFYPSDIAVEWESNGQPENNYKTTPPVLDSDGSFFLYSKLTVDKSRWQQGNVFSCSVMHEALHNHYTQKSLSLSP heavy 2: QDQLVQSGAEVKKPGASVKVSCKASGFNIKDTYIQWVRQAPGQGLEWMGRIDPLRKQTKYREKFEGRVTITADTSTNTAYMELSSLRSEDTAVYYCVRSGREFDYWGQGTLVTVSSASTKGPSVFPLAPSSKSTSGGTAALGCLVKDYFPEPVTVSWNSGALTSGVHTFPAVLQSSGLYSLSSVVTVPSSSLGTQTYICNVNHKPSNTKVDKKVEPKSCDKTHTCPPCPAPELLGGPSVFLFPPKPKDTLMISRTPEVTCVVVDVSHEEPEVKFNWYVDGVEVHNAKTKPREEQYNSTYRVVSVLTVLHQDWLNGKEYKCKVSNDALPKPIEETISKAKGQPREPQVYTLPPSRCELTKNQVSLSCAVKGFYPSDIAVEWESNGQPENNYKTTPPVLDSDGSFFLVSKLTVDKSRWQQGNVFSCSVMHEALHNHYTQKSLSLSP light: DIQMTQSPSSLSASVGDRVTITCRASQDIHKYIAWYQQKPGQAPRLLIQYTSTLQPGVPSRFSGSGSGTDYTFTISSLQPEDIATYYCLQYEQLRTFGGGTKVEIKRTVAAPSVFIFPPSDEQLKSGTASVVCLLNNFYPREAKVQWKVDNALQSGNSQESVTEQDSKDSTYSLSSTLTLSKADYEKHKVYACEVTHQGLSSPVTKSFNRGEC | 1.3 | 0.5 | 0.7 | 0.5 | 1.2 | 0.9 | –

Next, values leading:

Row | relative KD (FcgRIa) | relative KD (FcgRIIaR) | relative KD (FcgRIIaH) | relative KD (FcgRIIb) | relative KD (FcgRIIIaF) | relative KD (FcgRIIIaV) | FcγRIIIa BINDING ACTIVITY [1] [%] | Binder
4 | – | – | – | – | – | – | 163 | GpH7-A5/GpH7-B3-15-02A/GpL16-k0 (antibody, human IgG1, kappa, H2 S298A) heavy 1: not shown heavy 2: not shown light: DIVMTQSPLSLPVTPGEPASISCQASESLVHSNRNTYLHWYLQKPGQSPQLLIYKVSNRFSGVPDRFSGSGSGTDFTLKISRVEAEDVGVYYCSQNTHVPPTFGQGTKVEIERTVAAPSVFIFPPSDEQLKSGTASVVCLLNNFYPREAKVQWKVDNALQSGNSQESVTEQDSKDSTYSLSSTLTLSKADYEKHKVYACEVTHQGLSSPVTKSFNRGEC
5 | – | – | – | – | – | – | 130 | GpH7-TA2/GpH7-B3-01-15Y/GpL16-k0 (antibody, human IgG1, kappa, H1 G236W; H2 L234Y) heavy 1: QVQLVQSGAEVKKPGASVTVSCKASGYTFTDYEMHWIRQPPGEGLEWIGAIDPKTGDTAYSESFQDRVTLTADKSTSTAYMELSSLTSEDTAVYYCTRFYSYTYWGQGTLVTVSSASTKGPSVFPLAPSSKSTSGGTAALGCLVKDYFPEPVTVSWNSGALTSGVHTFPAVLQSSGLYSLSSVVTVPSSSLGTQTYICNVNHKPSNTKVDKKVEPKSCDKTHTCPPCPAPELLWGPSVFLFPPKPKDTLMISRTPEVTCVVVDVSHEDPEVKFNWYVDGVEVHNAKTKPREEQYNSTYRVVSVLTVLHQDWLNGKEYKCKVSNKALPAPIEKTISKAKGQPREPQVYTLPPSRKELTKNQVSLTCLVKGFYPSDIAVEWESNGQPENNYKTTPPVLDSDGSFFLYSKLTVDKSRWQQGNVFSCSVMHEALHNRYTQKSLSLSP heavy 2: not shown light: DIVMTQSPLSLPVTPGEPASISCQASESLVHSNRNTYLHWYLQKPGQSPQLLIYKVSNRFSGVPDRFSGSGSGTDFTLKISRVEAEDVGVYYCSQNTHVPPTFGQGTKVEIERTVAAPSVFIFPPSDEQLKSGTASVVCLLNNFYPREAKVQWKVDNALQSGNSQESVTEQDSKDSTYSLSSTLTLSKADYEKHKVYACEVTHQGLSSPVTKSFNRGEC
